These results are taken from article PMC5536003.

The assay addresses CXC chemokine receptor (CXCR)3, CXCR3A (UniProt P49682).
UniProt P49682, sequence (P49682 whole entry): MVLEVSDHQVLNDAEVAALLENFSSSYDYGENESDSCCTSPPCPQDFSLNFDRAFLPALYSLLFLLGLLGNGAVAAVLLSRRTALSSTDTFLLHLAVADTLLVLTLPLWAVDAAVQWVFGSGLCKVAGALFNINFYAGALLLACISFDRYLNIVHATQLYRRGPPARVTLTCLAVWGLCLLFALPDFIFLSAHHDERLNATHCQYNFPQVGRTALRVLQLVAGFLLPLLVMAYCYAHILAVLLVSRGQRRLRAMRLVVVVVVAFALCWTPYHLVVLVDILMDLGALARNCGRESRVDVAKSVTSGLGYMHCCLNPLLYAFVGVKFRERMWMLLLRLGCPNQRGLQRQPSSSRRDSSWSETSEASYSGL

Regarding “CXC chemokine ligand (CXCL)10 (from UniProt P02778 22-98)”, the increase of [Ca2+]i in Fura-2-loaded CHO/CXCR3A cells stimulated with 3 ng/mL CXCL10 (no GAG) amounted to 107 nM.

B1: CXC chemokine ligand (CXCL)9 (ligand)
chain: TPVVRKGRCSCISTNQGTIHLQSLKDLKQFAPSPSCEKIEIIATLKNGVQTCLNPDSADVKELIKKWEKQVSQKKKQKNGKKHQKKKVLKVRKSQRSRQKKTT
For the molecule B1, the increase of [Ca2+]i in Fura-2-loaded CHO/CXCR3A cells stimulated with 1 µg/mL CXCL9 (no GAG) was determined as 598 nM.

B2: CXC chemokine ligand (CXCL)11 (ligand)
chain: FPMFKRGRCLCIGPGVKAVKVADIEKASIMYPSNNCDKIEVIITLKENKGQRCLNPKSKQARLIIKKVERKNF
In turn, B2 returned an increase of [Ca2+]i in Fura-2-loaded CHO/CXCR3A cells stimulated with 3 ng/mL CXCL11 (no GAG) of 304 nM.
